Measured values reported in patent publication US8748572B2, “RNase a peptides, fragments and uses thereof” (priority 2006, dated 2014).

Key:
[1] = test system: poly U, poly C, poly A, poly G, poly I, double-stranded RNA; test: ribonuclease assay, substrate preference (polyribonucleotides); type: biochemical; conditions: 50 pmol rRNase, pH 7.0; for hydrolysis of poly U: 250 μg/ml poly U
Experimental: (§1) FIGS. 4 A-D are graphs showing the ribonucleolytic activity of recombinant leukocyte RNases. (A) is a graph showing the optimum pH for RNase activity. Enzymatic activity was determined with 50 pmol rRNase A-1 (open squares) and rRNase A-2 (closed circles) that was incubated with 250 μg/ml yeast tRNA in 40 mM sodium phosphate buffer at the pHs indicated. Measurements of A260 per time were converted to pmol/s as described in […] and Methods. (B) is a graph showing the initial rates for RNase activity. Enzymatic activity was determined as described in (A) with 40 mM sodium phosphate buffer, pH 7.0. (C) is a graph showing the substrate preference for RNase activity. 50 pmol rRNase A-1 (left panel) and rRNase A-2 (right panel) proteins were incubated with 250 μg/ml of poly U (open squares), poly C (closed circles), poly A (open diamonds), poly G (open triangles) and poly I (open circles) in 40 mM sodium phosphate buffers, pH 7.0. A260 was measured after precipitation of undigested RNA at each of the time points indicated. (D) is two panels of graphs showing interaction of RNase with human placental RNase inhibitor (hPR1). RNase activity was measured with […] of bovine pancreatic RNase (left) or […] rRNase A-1 and rRNase A-2 (right) with 250 μg/ml of yeast tRNA as substrate with (+) or without (−) 200 U human placental RNase inhibitor (hPR1) in 40 mM sodium phosphate buffer, pH 7.0. The hPR1 was added to the RNases in buffer 5 min prior to initiation of RNase assay by addition of substrate. *p<0.01.
(§2) The ribonuclease (RNase) assay with yeast tRNA substrate has been described in detail elsewhere. In this study, 10 μL of a 20 mg/ml solution of yeast tRNA, polyuridylic acid (poly U), polyadenylic acid (poly A), polycytidylic acid (poly C), polyguanylic acid (poly G), or polyinosinic acid (poly I) (Sigma-Aldrich) were added to 800 μl of 40 mM sodium phosphate buffer, pH 7.0 containing recombinant FLAG-tagged chicken RNase protein. In experiments in which the pH optimum was to be determined, 40 mM sodium phosphate buffers of pH 5.0, 5.5, 6.0, 6.5, […] or 8.0 were used instead of the buffer of pH 7.0. In some experiments, 200 U human placental RNase inhibitor (Boehringer Mannheim) were added prior to the addition of the tRNA substrate. Conversion of units A260 per unit time to pmol/s were performed as described in [29], based on the following conversion factors: the average molecular weight of a molecule of tRNA is 28,100 (75-90 ribonucleotides/tRNA molecule×341 MW per ribonucleotide) with an A260 of 1.0 corresponding to 40 μg of RNA.

yeast tRNA = test: ribonuclease assay with yeast tRNA substrate; type: biochemical; conditions: for Optimum pH for RNase activity: 50 pmol rRNase, 40 mM sodium phosphate buffers pH 5.5 to 8.0; for Km / kcat: 40 mM sodium phosphate buffer
Experimental: as §1
Next, the enzymatic activity of the two recombinant leukocyte RNases was characterized. Optimum pH was determined as 7.0 with 50 pmol rRNase A-1 or A-2, with 200 μg yeast tRNA substrate in 40 mM sodium phosphate buffers ranging from pH 5.5 to 8.0, as shown in FIG. 4A. […] Enzymatic activity was measured using 10 pmol rRNase A-1 or rRNase in 40 mM sodium phosphate buffer, pH 7.0. Conversion from A260 to pmol ribonucleotide product was carried out as described in reference 29 and in the Methods.
as §2

Row | Molecule | hydrolysis of poly U [1] | cleavage of poly C and poly A ([1]; 250 μg/ml substrate) | Optimum pH for RNase activity (yeast tRNA) | Km (yeast tRNA; pH 7.0) | kcat (yeast tRNA; pH 7.0) | Km, times lower than that for RNase A-1 (yeast tRNA; pH 7.0) | kcat, times lower than that for RNase A-1 (yeast tRNA; pH 7.0) | polyribonucleotides other than poly U as substrates ([1]; 250 μg/ml substrate)
1 | rRNase A-2: recombinant carboxy-terminal FLAG-tagged Gallus gallus leukocyte RNase A-2, SEQ ID NO: 4, GenBank DQ395276 (protein, listed as Gallus gallus, C-terminal FLAG tag) VPTYQDFLYKHMDFPKTSFPSNAAYCNVMMVRRGMTAHGRCKSFNTFVHTDPRNLNTLCINQPDQALRTTRRHFRITDCKLIRSHPTCRYSGNQFNRRVRVGCRGGLPVHLDGTSP | hydrolyzed poly U RNA, at initial rates that were roughly equivalent to one another | cleaved poly C and poly A, although at initial rates that were lower than those observed for poly U | 7.0 | 0.5 µM | 0.056 s⁻¹ | 34 times | 50 times | 
2 | rRNase A-1: recombinant carboxy-terminal FLAG-tagged Gallus gallus leukocyte RNase A-1, SEQ ID NO: 2, GenBank DQ395275 (protein, listed as Gallus gallus, C-terminal FLAG tag) VPTYQDFLRTHVDFPKTSFPNIAAYCNVMMVRRGINVHGRCKSLNTFVHTDPRNLNTLCINQPNRALRTTQQQLPVTDCKLIRSHPTCSYTGNQFNHRVRVGCWGGLPVHLDGTFP | hydrolyzed poly U RNA, at initial rates that were roughly equivalent to one another |  | 7.0 | 17.2 µM | 2.61 s⁻¹ |  |  | poor substrates
